{"source": "the supplement of paper PMC12636428", "data": [{"test_system": "Saccharomyces cerevisiae", "experiment": "transcriptional activation domain activity (GFP:mCherry ratio, weighted mean of sorted bins, harmonized to initial dataset scale) (arbitrary fluorescence ratio units); higher = stronger transcriptional activation", "conditions": "beta-estradiol 1 µM; induction time 4 h", "summary_of_the_method": "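Each value is an activation activity: the read-weighted mean of bin median fluorescence, averaged across barcodes, then mapped linearly to the initial dataset scale. The tiles, fused to an estradiol-inducible synthetic transcription factor, sat at the yeast URA3 locus in GFP-reporter diploids. Cells spent 4 hours at 30 °C in SC with 1 uM beta-estradiol before sorting into 8 GFP:mCherry bins, and tiles below 50 reads were removed.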", "values": [{"sequence": "MLCFIDLLIFGISLCFLSLLLFLSFFLLFFFFFLVFSEEFVLLHSAAWSFILS", "transcriptional activation domain activity": 41200}, {"sequence": "MLCFLYHLVSMCTLLHCLYLLPVLFLIFYASFFLLLACTWSSVRCLISLFFCL", "transcriptional activation domain activity": 57300}, {"sequence": "MLCGAMPIVSLFSFYTFFFVFWCYLLKFFSVMAWLSTHIALLPSFFVLLTFSL", "transcriptional activation domain activity": 40600}, {"sequence": "MLCIPFCVLFCVVMGLINYGAFVDPCFLSFYVLLSTLLQLPSSFLPFFLFLPP", "transcriptional activation domain activity": 66900}, {"sequence": "MLCIRYLIYFLLLGESLVGSFLPPFTIYISLFFSSSIPCSTWVSFPLLHHTYL", "transcriptional activation domain activity": 35900}, {"sequence": "MLCIWLLSLYVWFVQEKGAYKPVLSSSFFFWLILQVYVHRYWLPFPSLTFLYH", "transcriptional activation domain activity": 55500}, {"sequence": "MLCLCTIWIYNAQICYYLSSCSTLLVTDCCCCYYYSLLFYILTSSFFQILLST", "transcriptional activation domain activity": 50100}, {"sequence": "MLCLGLVDVYVNFLIFQLYNFLFLFGFLRWINEFVFGFPIHCLFCVILYLLIL", "transcriptional activation domain activity": 30900}, {"sequence": "MLCLTYLVFLRVYGHLLWVELGLFFFSFSKSNYHVIRHGLPFFCYNGAWMEFL", "transcriptional activation domain activity": 56900}, {"sequence": "MLCMTMTTCMQWLAQFMIVYSLPYMVVSIKSFTFIFFAVCTTFSFIFTLLFVP", "transcriptional activation domain activity": 41900}, {"sequence": "MLCRLCFFVFTRAVLLYLIGLFFNLFRLCLSLRFNIFVSFVFLDFCMSFPSTL", "transcriptional activation domain activity": 40200}, {"sequence": "MLCYAVLWYFVYITFFYINYDMVFLISYLVFLKQLIDRICIIIFIFSFIFFIF", "transcriptional activation domain activity": 47400}, {"sequence": "MLDLLVVHFPISNGLIEDNDLKVLVKAAVGVVLRKDMSLNRRLYAWLLGAQEG", "transcriptional activation domain activity": 44600}, {"sequence": "MLDVILYLPCLLITYLCWAVWFLFIVFLCFLLCWFCFVIDGLFPFFFITFVFL", "transcriptional activation domain activity": 56100}, {"sequence": "MLDVNMSCPFADIRYLLVFSCYFADYLLMLQIWGFCLWLFTLIYMVGGVWLMV", "transcriptional activation domain activity": 34300}, {"sequence": "MLEGILGWSKWQKYSIKWYIWLPRLFFQSFFPFFSCPISLQKFSVLLFHFFFL", "transcriptional activation domain activity": 59700}, {"sequence": "MLETRFINNLVPLYRFLLPFYIFFFFSIYCYYLTIDPHYFSLSSMVFFFSCCT", "transcriptional activation domain activity": 57600}, {"sequence": "MLFARLHPVADETLIPFFCFWPSRLFVVLLVSFLHLIILFLSCFFFNCFLLFF", "transcriptional activation domain activity": 50300}, {"sequence": "MLFFFCPIYLKLLIFFLCIVRSICQIFVFAYYLHRIYGVVCFSLLFFSKIQLR", "transcriptional activation domain activity": 58200}, {"sequence": "MLFFFLYIFLCGCFPFWNMSIFFSVIPPFFSFLPLMLLFFFFFGMFGQRINIF", "transcriptional activation domain activity": 36300}, {"sequence": "MLFFFSGLLFFLSLLSLVFLFALFFIRISTPTIRFRLWFFLLLLLLFSLFLLF", "transcriptional activation domain activity": 45500}, {"sequence": "MLFFHQDTVVGQLFTRYTALIVLIFKSSSVLVFVLFLFFFFFFWPIRILVSFI", "transcriptional activation domain activity": 37100}, {"sequence": "MLFGRSFMGTYFISGKHVFFFFLVFFNSLFLFYLLTSTFISICITGSLFFFVL", "transcriptional activation domain activity": 30400}, {"sequence": "MLFHFLAFPFLFFIFFLCCFSSWVAFHSPFSFLIMFSFEWIMLFFIRCTASSV", "transcriptional activation domain activity": 41600}, {"sequence": "MLFIFFVIFFYFFLFSSIFFYHFIFLFSLELSLYFVDLSLELIPIYFPVCILS", "transcriptional activation domain activity": 46300}, {"sequence": "MLFIPFCVLFFVWLWGLINYGAFVDPCFLSFYVLLSTLLQLPSSSFLSFFALF", "transcriptional activation domain activity": 54400}, {"sequence": "MLFIYEVFPSFSHSPIHSPFISFPSSLPSLSLPESLCICLWIVLFLTFNFYTL", "transcriptional activation domain activity": 56900}, {"sequence": "MLFLFFFIHILHPFFFFFNPFFLFLSFFFISFCTSVCLCMRKQLTRIIFLNYI", "transcriptional activation domain activity": 50500}, {"sequence": "MLFLMCSLFFFVVFFLWSFFCGLLSLWCICYDISVGAWLTFGLLLVLWLLCIC", "transcriptional activation domain activity": 23900}, {"sequence": "MLFLMYIFYLCRCLLLFFLTDIMISLLLPSLFSPLITLFLFFTLFKYMYIYAN", "transcriptional activation domain activity": 65400}, {"sequence": "MLFLPSYSFSVFLFLFLLFALTVQVCLFLFTTWLVSCFDMYVFVWVGVCLCAR", "transcriptional activation domain activity": 47700}, {"sequence": "MLFPCGVLFLSVFSISDTYVAFFFFFFFSFGWSFVSIGFLLFTIFFLGISFFF", "transcriptional activation domain activity": 32300}, {"sequence": "MLFPFRVSAISPDVICFIPLCFSFCYHFAIRVRGILPSRVRALMMYVWFVWYF", "transcriptional activation domain activity": 51900}, {"sequence": "MLFPPPPFSLFFFSLPFFLFFKTDLFFPCLIFLIPLYPFSPLVGDRLAILLGV", "transcriptional activation domain activity": 55100}, {"sequence": "MLFSLYLFFYFLFFVCDGLPYFWFYKHTRFSVNYVSSSPPFCWSLFFLFFYFF", "transcriptional activation domain activity": 62000}, {"sequence": "MLFSLYLFFYFLFFVCDGYVTMGSVFFFCSCWWCSYYYLTINIGLTNYFFPPL", "transcriptional activation domain activity": 53300}, {"sequence": "MLFSTFFHFMILLCFLLLLCFFYFYDFTYLYGPPMIFYFYYFSLCLYLNKLQF", "transcriptional activation domain activity": 41600}, {"sequence": "MLFTIVPLLCILHHIVLHPIFPSLFYTHIHLCTFFFFFNSVFFFFMFYILVFN", "transcriptional activation domain activity": 50200}, {"sequence": "MLFVCFFWLWGWWLVVVVFVFLFFSFFLLLSSEFTDPFAFFCLFFFVLLHFSF", "transcriptional activation domain activity": 44000}, {"sequence": "MLFVFAQLHQVPLSEYFLLGCLYWFFYHIIFSSIFRPSHSIGMASGLPMLYTP", "transcriptional activation domain activity": 45000}, {"sequence": "MLFYFYFYFYFYAFSIFSFYVIFYFLYFFFLFRPGLLYLLLLFFSILFVLFLP", "transcriptional activation domain activity": 64900}, {"sequence": "MLGKGRIMEYLLTFVWGFGVHILIFYLSCTGVIMGFLLIYTYSTFCFCFHHYV", "transcriptional activation domain activity": 67600}, {"sequence": "MLGPFSVFLSVFPPFAAGFGTALFPFFFSCCLCFCCWCTSFALFAPLTALFAV", "transcriptional activation domain activity": 53300}, {"sequence": "MLGSARVWQKRACMGFSFSLVIVSFTPPHRLFSHVQLGSIVSLLFFVTLFNFM", "transcriptional activation domain activity": 20700}, {"sequence": "MLHAGVSNKIAKGWPKEGSCDRASFVHEGVLMMCQRSLVTFIVRSLLLMCYYF", "transcriptional activation domain activity": 36800}, {"sequence": "MLHGSGAVFGSGFLSLVSLVLWLISYYCCTWTWKGIFILSICFFNTCIYIECI", "transcriptional activation domain activity": 49800}, {"sequence": "MLHLAALSPLMLLVFLLFSLFFKFFATFIWLYIMAYILITTLIIVFRITLPAN", "transcriptional activation domain activity": 68500}, {"sequence": "MLHLPLFLLYFFFFSLLLYFSFFPSSFFFFLLSPPFPLLIFSLFLSFLLLFPP", "transcriptional activation domain activity": 40200}, {"sequence": "MLHLVTCISPSLYTSIFFLYLFHYFPSSHFLLNCRTSMHFSLSRLTFIYVLVL", "transcriptional activation domain activity": 50200}, {"sequence": "MLHPTIVYPFITHLLLLILLFSLLPRFSYDADMDFLLVFSSFVLLLCFPWFED", "transcriptional activation domain activity": 40400}, {"sequence": "MLHSISTYLIFPLLYLFILSFNIYHFFFFSLKIITILIFLHTFVLLLFSWRKY", "transcriptional activation domain activity": 60400}, {"sequence": "MLHSLYVVAISKSGILSSFVNPTTTTVHYTPFEISMIGYFNLVLIWLKLLILW", "transcriptional activation domain activity": 61300}, {"sequence": "MLHVVGGYSRVRTWVIFLFVFRIGGRAYIDWIGFFFMGFLHWIRFIVVMVLFL", "transcriptional activation domain activity": 41800}, {"sequence": "MLICLFVVFSPFFLFIFLYLSAYRLSFFNFSCFLLFLYLFLIHLLYFPLYFIF", "transcriptional activation domain activity": 61200}, {"sequence": "MLIFVLIVCISLGLAMSFDSLSLHLQLHRLFCIFCVIFILFAHSFSVGLSCYI", "transcriptional activation domain activity": 72000}, {"sequence": "MLIFYFYFYFYFYLNFFYFFSFVSGWFVLGKDVFVLFLFPFSLSGFSYFVFGY", "transcriptional activation domain activity": 46700}, {"sequence": "MLIGTVFLICSLNLCLLFLGWAWGCIVLYLDDLNILLLSCLFTFFLCTFTFFS", "transcriptional activation domain activity": 40900}, {"sequence": "MLIIGRIARWYIHPIAIVWFYLLHVSHFLYFLLVAEFQPRYIHVYLYLYLLST", "transcriptional activation domain activity": 47400}, {"sequence": "MLIILLSSLVLWRLGSPCFFYTLFLFYISERSISQLPPPPTLLSILFFFTFIA", "transcriptional activation domain activity": 53100}, {"sequence": "MLILLLLLLLLLLLLLLLIMIMIMILMIFLLLFMILIFLLVIMREFCWLWVLW", "transcriptional activation domain activity": 44900}, {"sequence": "MLILLYLSLLPILYFCTDGLIKDTLLYLHACGLIVWWHCPSSTGDMYGLRHFW", "transcriptional activation domain activity": 55800}, {"sequence": "MLINKLIVLRELCYSDDAAKQIVMYVISLFLSLIFYSFLPCLGLICLSILVPS", "transcriptional activation domain activity": 49100}, {"sequence": "MLIQSQPQPPPTKHTPLYFIPHFILLLLLALSPSLTLLTLSFFYLFLFCYLLV", "transcriptional activation domain activity": 20900}, {"sequence": "MLISLLVRLGLDIFMHLYMLLLHISQFSDLLHTRSFLLILFLISGASKRLFFF", "transcriptional activation domain activity": 51900}, {"sequence": "MLIVSRAGFLAFLLCYLHFCSVVVHVFSLPIGQPVTGYGNGNSVNPRSPIVPS", "transcriptional activation domain activity": 52100}, {"sequence": "MLKLCFFCAFLFLFLIIYYIYIFCFFFPFSLPSFSFFSFIPALIFFFFVVVEP", "transcriptional activation domain activity": 48200}, {"sequence": "MLKLFWTISKVFGPSDLTLQERGHYMELIIALRFIQGWWQDRDLNGFLPLWVR", "transcriptional activation domain activity": 65000}, {"sequence": "MLLALRMFEELKLFFLSFVFLSQFFFFIYLFLVHYCKWRMVTLPYSVFTFFLV", "transcriptional activation domain activity": 44000}, {"sequence": "MLLAMGWKVATGLQTLSIFRRDGFLYFLVWINLINTMIVLFARPTLLFVTIFF", "transcriptional activation domain activity": 51900}, {"sequence": "MLLASGCWIQSTYGLFYKCLYFFYLAIFFDHFTFSLNNFLITQCRYPIISLFI", "transcriptional activation domain activity": 78000}, {"sequence": "MLLCLSFLCCYYDISNVSRCYCLFCCIILLFLSCSLLFWLAFSQFLRFFLISF", "transcriptional activation domain activity": 62000}, {"sequence": "MLLDPRVIPLIFSTLFLFLHFNFLPNFPPLPLSFHPRPTLLPPFCSLLFPLLF", "transcriptional activation domain activity": 80000}, {"sequence": "MLLFFSFSLCRFLFLSLLLVFLMDAFSFLCFLLIQPPLPCLRSFFSLFLIFVL", "transcriptional activation domain activity": 38900}, {"sequence": "MLLFIFWRLLYFFILGSLLRAQSRRKWLVRWCREHGFGPNPRRPRSGWVTFWV", "transcriptional activation domain activity": 59600}, {"sequence": "MLLFSKLYYEAVGVGCLSYFDFQSLQVWVLDICASWYFVLAFNSYFVVSLFFG", "transcriptional activation domain activity": 36200}, {"sequence": "MLLFYILLSFSISSFFVCSLSNMLFFYMHHLIYMLTIFFYLLFNPITPILFFV", "transcriptional activation domain activity": 51300}, {"sequence": "MLLGCRKRYSAHPFNDFLSFFIFYSSLFFYSLLSPFPFPPHSTPVTSFFILFY", "transcriptional activation domain activity": 53700}, {"sequence": "MLLGRHIFLYFILSFFLSFWLHTIPYLLLDFTYYHNPIISTLPTSYFFSIFLI", "transcriptional activation domain activity": 72200}, {"sequence": "MLLHLLPILCPDCIFSASITFAVLSFLLSPCPLLPFSLLPLLCFFISIILRSV", "transcriptional activation domain activity": 42100}, {"sequence": "MLLHVFRLIEIIEILWISCICAILLVVFVILEVCNLFVLGRKISFLMFCVWVI", "transcriptional activation domain activity": 54400}, {"sequence": "MLLICMSVWLCALSLCILRCRENFFVLMGDVFFFLASMWYGTVSQFVRRPLFH", "transcriptional activation domain activity": 48100}, {"sequence": "MLLIWLYALKTGFVLSAVVSFGFWYSISLFFMYFIGKPLFHDSFFLFFSSFFL", "transcriptional activation domain activity": 57200}, {"sequence": "MLLIWLYALKTGLVLSGSFLLAFGTQYPFFFMYFIGKPLFHDSFFLLSFLFFP", "transcriptional activation domain activity": 70200}]}]}
